This is an account of results in patent US7176008.

In the series the target is T1, Biotinyl-EACA-EACA-Gly-Leu-Met-Val-Gly-Gly-Val-Val-Arg-OH.
T1 chain: GLMVGGVVR

B1: activated thrombin-activatable fibrinolysis inhibitor (human TAFIa) (protein)
chain: ASASYYEQYHSLNEIYSWIEFITERHPDMLTKIHIGSSFEKYPLYVLKVSGKEQAAKNAIWIDCGIHAREWISPAFCLWFIGHITQFYGIIGQYTNLLRLVDFYVMPVVNVDGYDYSWKKNRMWRKNRSFYANNHCIGTDLNRNFASKHWCEEGASSSSCSETYCGLYPESEPEVKAVASFLRRNINQIKAYISMHSYSQHIVFPYSYTRSKSKDHEELSLVASEAVRAIEKISKNTRYTHGHGSETLYLAPGGGDDWIYDLGIKYSFTIELRDTGTYGFLLPERYIKPTCREAFAAVSKIAWHVIRNV
For B1, the Km result was “Values of Km for TAFIa and CPB were 8 and 12 µM, respectively”.

B2: human carboxypeptidase B (protein)
chain: ATGHSYEKYNKWETIEAWTQQVATENPALISRSVIGTTFEGRAIYLLKVGKAGQNKPAIFMDCGFHAREWISPAFCQWFVREAVRTYGREIQVTELLDKLDFYVLPVLNIDGYIYTWTKSRFWRKTRSTHTGSSCIGTDPNRNFDAGWCEIGASRNPCDETYCGPAAESEKETKALADFIRNKLSSIKAYLTIHSYSQMMIYPYSYAYKLGENNAELNALAKATVKELASLHGTKYTYGPGATTIYPAAGGSDDWAYDQGIRYSFTFELRDTGRYGFLLPESQIRATCEETFLAIKYVASYVLEHLY
In the case of B2, the Km entry is “Values of Km for TAFIa and CPB were 8 and 12 µM, respectively”.

B3: human soluble carboxypeptidase M (protein)
chain: LDFNYHRQEGMEAFLKTVAQNYSSVTHLHSIGKSVKGRNLWVLVVGRFPKEHRIGIPEFKYVANMHGDETVGRELLLHLIDYLVTSDGKDPEITNLINSTRIHIMPSMNPDGFEAVKKPDCYYSIGRENYNQYDLNRNFPDAFEYNNVSRQPETVAVMKWLKTETFVLSANLHGGALVASYPFDNGVQATGALYSRSLTPDDDVFQYLAHTYASRNPNMKKGDECKNKMNFPNGVTNGYSWYPLQGGMQDYNYIWAQCFEITLELSCCKYPREEKLPSFWNNNKASLIEYIKQVHLGVKGQVFDQNGNPLPNVIVEVQDRKHICPYRTNKYGEYYLLLLPGSYIINVTVPGHDPHITKVIIPEKSQNFSALKKDILLPFQGQLDSIPVSNPSCPMIPLYRNLPDHS
On to B3, for which the “Km (37° C.)” value is “the value was much higher (>50 µM) at 37 °C” and the “Km (room temperature)” value is on record as “Km for CPM was 38 µM at room temperature”.
